Measurements taken from the supplement of paper PMC10065799, “High-throughput profiling of sequence recognition by tyrosine kinases and SH2 domains using bacterial peptide display” (eLife, 2023).
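Also: 11-residue human phosphosite peptides and single-mutation variants displayed on the E. coli surface, counted by deep sequencing, each peptide's frequency after selection divided by its frequency in the unselected input library; frequency after pTyr selection over input frequency; kinase dosed for 20-30% of maximal phosphorylation in three min.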

Each sequence was assayed against EPHB2 (UniProt P29323) (assay: phosphorylation enrichment, bacterial display (enrichment ratio); higher = better substrate or ligand; peptides without Tyr show the background).
Sequence of EPHB2 (P29323 whole entry, looked up): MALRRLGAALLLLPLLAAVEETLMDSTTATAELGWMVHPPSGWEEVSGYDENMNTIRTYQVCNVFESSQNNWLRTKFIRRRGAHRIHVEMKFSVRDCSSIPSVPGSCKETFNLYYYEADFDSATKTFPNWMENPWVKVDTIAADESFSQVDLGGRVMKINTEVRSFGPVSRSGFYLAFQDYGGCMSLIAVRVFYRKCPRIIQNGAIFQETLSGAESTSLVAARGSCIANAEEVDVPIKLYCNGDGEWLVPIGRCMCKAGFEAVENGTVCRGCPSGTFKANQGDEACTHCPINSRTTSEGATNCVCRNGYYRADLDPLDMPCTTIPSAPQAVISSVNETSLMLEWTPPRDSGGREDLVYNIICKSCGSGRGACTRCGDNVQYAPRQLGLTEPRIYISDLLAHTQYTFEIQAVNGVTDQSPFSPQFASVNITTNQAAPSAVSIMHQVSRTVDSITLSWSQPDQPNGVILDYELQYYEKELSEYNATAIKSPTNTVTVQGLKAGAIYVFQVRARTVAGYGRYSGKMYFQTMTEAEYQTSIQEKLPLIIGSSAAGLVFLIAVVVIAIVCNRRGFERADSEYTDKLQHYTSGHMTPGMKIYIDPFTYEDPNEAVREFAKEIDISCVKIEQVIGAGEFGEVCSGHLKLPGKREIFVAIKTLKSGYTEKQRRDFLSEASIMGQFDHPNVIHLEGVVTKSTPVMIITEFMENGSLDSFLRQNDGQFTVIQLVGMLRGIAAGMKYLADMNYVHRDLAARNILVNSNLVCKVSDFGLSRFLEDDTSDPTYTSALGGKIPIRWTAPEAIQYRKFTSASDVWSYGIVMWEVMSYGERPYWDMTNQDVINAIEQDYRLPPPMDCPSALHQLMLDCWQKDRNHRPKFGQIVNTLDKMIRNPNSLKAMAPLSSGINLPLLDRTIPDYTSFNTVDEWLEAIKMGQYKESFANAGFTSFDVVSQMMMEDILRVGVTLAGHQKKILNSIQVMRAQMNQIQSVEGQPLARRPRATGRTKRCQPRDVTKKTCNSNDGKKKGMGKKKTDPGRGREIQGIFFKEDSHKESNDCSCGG
VVLEDYLDIKN [CLCNKB_Y138] gave a phosphorylation enrichment of 0.671.
SPPPAFTPMSG [ERBB4_Y1056_Y1056F] was tested, and the phosphorylation enrichment was 0.416.
Work on HSDYQYSQRSQ [PKP2_Y168] yielded a phosphorylation enrichment of 0.645.
VRQQVYKKVEE [HADHA_Y283] was tested, and the phosphorylation enrichment was 0.411.
Work on FPHVIYARLWR [SMAD4_Y95] yielded a phosphorylation enrichment of 1.16.
Work on HVSISYDIPLT [GAB1_Y307_P311L] yielded a phosphorylation enrichment of 1.48.
Sequence RELGEYPLAEY [ALDH1A3_Y492_A493P] has a phosphorylation enrichment of 0.495.
RLAQRYLIWEC [SCN5A_Y694] gave a phosphorylation enrichment of 0.914.
EPFEVYRIVPE [IRF8_Y110_K108E_YF] gave a phosphorylation enrichment of 0.72.
For SFNNKYGMVAQ [APOB_Y276_K273N_YF], the phosphorylation enrichment was 0.504.
With QGCSIYKDYYR [PLA2G2D_Y82] the phosphorylation enrichment was 0.734.
Work on TTPGPYRSIYF [MPG_Y71] yielded a phosphorylation enrichment of 0.278.
PYRQWYESHYA [RPS8_Y113] gave a phosphorylation enrichment of 2.27.
GMTRNYIIFIE [BCO2_Y294] was tested, and the phosphorylation enrichment was 0.67.
IKIMGSSIRTI [IDS_Y490_Y490S] was tested, and the phosphorylation enrichment was 0.393.
IKRIDYEFVEM [ADA_Y84_A83D] gave a phosphorylation enrichment of 3.22.
LTNDRYVATLT [IL6ST_Y396_L397V] gave a phosphorylation enrichment of 0.72.
Work on GTCGGYCSVLG [RAB18_Y202_A198T] yielded a phosphorylation enrichment of 0.353.
Sequence VRFVDYVLFRS [FAM189B_Y361_S358F] has a phosphorylation enrichment of 0.919.
With MALDRYVAICK [OR2B11_Y127] the phosphorylation enrichment was 0.575.
MTKEQYIKMNQ [ARFGEF2_Y797_R802Q] was tested, and the phosphorylation enrichment was 0.575.
NIFSFYLSRDP [CTSD_Y232] showed a phosphorylation enrichment of 0.506.
FGTAQYCCRMG [LRRK2_Y2023_I2020T_YF] showed a phosphorylation enrichment of 8.12.
KKHFSYAWPFY [BRDT_Y291] was tested, and the phosphorylation enrichment was 0.428.
Sequence DGTGHYLGNAC [GATA5_Y208_C210G] has a phosphorylation enrichment of 0.456.
Sequence LSSNLYYRWLT [CNGA3_Y168_P163L] has a phosphorylation enrichment of 8.33.
For MCDSHYLESRS [CLK1_Y56], the phosphorylation enrichment was 0.535.
With GGQEDYDRLRP [RAC3_Y64_A59G] the phosphorylation enrichment was 0.691.
For ECKASCPGKIT [PRSS3_Y232_Y232C], the phosphorylation enrichment was 0.335.
For LLKMMYLMLDN [STAT1_Y203_K201M], the phosphorylation enrichment was 0.693.
In the case of NHFKIYNPCAE [PTEN_Y68_L70P_YF], the phosphorylation enrichment is reported as 0.518.
Work on IKKFKYRIEEH [GJA1_Y137_G138R] yielded a phosphorylation enrichment of 0.389.
With GRFSGYKSKHG [EPHA3_Y570_C568S] the phosphorylation enrichment was 0.256.

What follows are sequences tested against FGFR1 (UniProt P11362) in the same assay as above.
Sequence of FGFR1 (P11362 whole entry, looked up): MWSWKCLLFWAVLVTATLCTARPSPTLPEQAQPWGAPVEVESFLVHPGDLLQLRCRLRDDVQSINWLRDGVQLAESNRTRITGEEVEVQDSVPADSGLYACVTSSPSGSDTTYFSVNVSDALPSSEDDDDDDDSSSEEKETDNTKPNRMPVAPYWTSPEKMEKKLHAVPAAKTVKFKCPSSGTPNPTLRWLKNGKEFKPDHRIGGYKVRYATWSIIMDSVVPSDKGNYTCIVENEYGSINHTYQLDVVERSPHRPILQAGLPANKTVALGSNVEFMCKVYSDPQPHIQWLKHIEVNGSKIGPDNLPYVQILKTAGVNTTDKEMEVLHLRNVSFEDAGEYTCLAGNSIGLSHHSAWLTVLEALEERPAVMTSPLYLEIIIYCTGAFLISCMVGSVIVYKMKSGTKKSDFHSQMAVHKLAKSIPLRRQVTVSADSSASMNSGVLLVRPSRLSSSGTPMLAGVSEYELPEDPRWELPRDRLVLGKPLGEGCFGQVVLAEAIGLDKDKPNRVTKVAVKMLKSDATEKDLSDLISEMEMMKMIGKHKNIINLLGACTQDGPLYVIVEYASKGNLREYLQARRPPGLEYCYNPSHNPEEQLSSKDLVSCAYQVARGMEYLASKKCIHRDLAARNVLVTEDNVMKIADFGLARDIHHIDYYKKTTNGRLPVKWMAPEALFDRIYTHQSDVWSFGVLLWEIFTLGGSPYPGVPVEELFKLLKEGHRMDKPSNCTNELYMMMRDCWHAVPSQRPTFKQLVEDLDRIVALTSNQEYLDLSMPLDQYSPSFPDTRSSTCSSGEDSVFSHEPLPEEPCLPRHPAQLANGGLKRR
With VVLEDYLDIKN [CLCNKB_Y138] the phosphorylation enrichment was 0.668.
With SPPPAFTPMSG [ERBB4_Y1056_Y1056F] the phosphorylation enrichment was 0.402.
HSDYQYSQRSQ [PKP2_Y168] gave a phosphorylation enrichment of 0.344.
For VRQQVYKKVEE [HADHA_Y283], the phosphorylation enrichment was 0.344.
Work on FPHVIYARLWR [SMAD4_Y95] yielded a phosphorylation enrichment of 0.567.
HVSISYDIPLT [GAB1_Y307_P311L] showed a phosphorylation enrichment of 1.09.
RELGEYPLAEY [ALDH1A3_Y492_A493P] showed a phosphorylation enrichment of 0.688.
RLAQRYLIWEC [SCN5A_Y694] gave a phosphorylation enrichment of 0.647.
For EPFEVYRIVPE [IRF8_Y110_K108E_YF], the phosphorylation enrichment was 1.25.
In the case of SFNNKYGMVAQ [APOB_Y276_K273N_YF], the phosphorylation enrichment is reported as 0.4.
QGCSIYKDYYR [PLA2G2D_Y82] was tested, and the phosphorylation enrichment was 1.27.
Sequence TTPGPYRSIYF [MPG_Y71] has a phosphorylation enrichment of 0.44.
PYRQWYESHYA [RPS8_Y113] gave a phosphorylation enrichment of 1.36.
Work on GMTRNYIIFIE [BCO2_Y294] yielded a phosphorylation enrichment of 0.599.
In the case of IKIMGSSIRTI [IDS_Y490_Y490S], the phosphorylation enrichment is reported as 0.502.
With IKRIDYEFVEM [ADA_Y84_A83D] the phosphorylation enrichment was 1.02.
LTNDRYVATLT [IL6ST_Y396_L397V] gave a phosphorylation enrichment of 0.619.
GTCGGYCSVLG [RAB18_Y202_A198T] gave a phosphorylation enrichment of 0.37.
VRFVDYVLFRS [FAM189B_Y361_S358F] was tested, and the phosphorylation enrichment was 2.27.
MALDRYVAICK [OR2B11_Y127] was tested, and the phosphorylation enrichment was 0.508.
MTKEQYIKMNQ [ARFGEF2_Y797_R802Q] gave a phosphorylation enrichment of 0.687.
Work on NIFSFYLSRDP [CTSD_Y232] yielded a phosphorylation enrichment of 0.348.
Sequence FGTAQYCCRMG [LRRK2_Y2023_I2020T_YF] has a phosphorylation enrichment of 0.56.
Sequence KKHFSYAWPFY [BRDT_Y291] has a phosphorylation enrichment of 0.495.
In the case of DGTGHYLGNAC [GATA5_Y208_C210G], the phosphorylation enrichment is reported as 0.421.
Sequence LSSNLYYRWLT [CNGA3_Y168_P163L] has a phosphorylation enrichment of 21.5.
MCDSHYLESRS [CLK1_Y56] was tested, and the phosphorylation enrichment was 0.509.
For GGQEDYDRLRP [RAC3_Y64_A59G], the phosphorylation enrichment was 0.528.
With ECKASCPGKIT [PRSS3_Y232_Y232C] the phosphorylation enrichment was 0.404.
For LLKMMYLMLDN [STAT1_Y203_K201M], the phosphorylation enrichment was 0.874.
Sequence NHFKIYNPCAE [PTEN_Y68_L70P_YF] has a phosphorylation enrichment of 0.458.
With IKKFKYRIEEH [GJA1_Y137_G138R] the phosphorylation enrichment was 0.402.
GRFSGYKSKHG [EPHA3_Y570_C568S] gave a phosphorylation enrichment of 0.312.
